Experimental data published in patent publication CN114409797A (HEFEN TIANKPORT IMMUNOLOGICAL DRUG CO LTD, dated 2022).

B1: CD3×PD1mut双特异抗体 (bispecific antibody)
chain 1: EVQLLESGGGLVQPGGSLKLSCAASGFTFNTYAMNWVRQAPGKGLEWVARIRSKYNNYATYYADSVKDRFTISRDDSKNTAYLQMNNLKTEDTAVYYCVRHGNFGNSYVSWFAYWGQGTLVTVSSGGGGSGGGGSGGGGSELVVTQEPSLTVSPGGTVTLTCRSSTGAVTTSNYANWVQQKPGQAPRGLIGGTNKRAPGTPARFSGSLLGGKAALTLSGVQPEDEAEYYCALWYSNLWVFGGGTKLTVLGGGGSPKSCDKTHTCPPCPAPELLGGPSVFLFPPKPKDTLMISRTPEVTCVVVAVSHEDPEVKFNWYVDGVEVHNAKTKPREEQYASTYRVVSVLTVLHQDWLNGKEYKCKVSNKALPAPIEKTISKAKGQPREPQVYTLPPSREEMTKNQVSLWCLVKGFYPSDIAVEWESNGQPENNYKTTPPVLDSDGSFFLYSKLTVDKSRWQQGNVFSCSVMHEALHNHYTQKSLSLSPGK
chain 2: not shown
notes: Two-chain knob-into-hole heterodimer with human IgG1 Fc
B2: CD3×PD1双特异抗体 (bispecific antibody)
chain 1: B1 chain 1
chain 2: not shown
notes: as for B1

Target: PD-L1蛋白 (expressed on CHO-K1-PD-L1 cells) (Homo sapiens (Human), UniProt Q9NZQ7 19-290)
Sequence (Q9NZQ7 19-290 limits assumed): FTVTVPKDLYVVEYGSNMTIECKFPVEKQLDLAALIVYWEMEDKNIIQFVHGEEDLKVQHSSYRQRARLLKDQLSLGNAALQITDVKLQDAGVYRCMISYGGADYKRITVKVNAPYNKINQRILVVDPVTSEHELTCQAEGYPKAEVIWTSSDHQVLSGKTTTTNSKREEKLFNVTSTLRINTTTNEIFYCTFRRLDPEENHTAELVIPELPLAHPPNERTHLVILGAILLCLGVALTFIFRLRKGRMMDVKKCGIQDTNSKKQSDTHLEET
Assay: flow cytometry on CHO-K1-PD-L1 cells, Alexa-647 anti-human Fc secondary antibody

Binder | binding result
B1 | binds
B2 | binds
